# Target: the molecule itself
# Experiment: direct infusion mass spectrometry
protein,measurement,value
"ParD antitoxin (PA0125) from Pseudomonas aeruginosa, wild type (natural protein) MSTVVSFRADDALVAALDELARATHRDRPYHLRQALAQYLERQQWQVAAIDEGLADANAGRLLEHIEIEKRWGLQ",stoichiometry N,2

# — doi:10.1101/2021.03.29.437564 (bioRxiv, 2021)
